Experimental data reported in patent US10100120B2, “Antibody which specifically binds to human CRTH2” (KYOWA HAKKO KIRIN CO., LTD, priority 2015, dated 2018).

Assays:
Assay type in all cases: cell-based
human eosinophils [1] = assay: Antagonist activity using shape change of human eosinophils as index (Example 19); conditions: DKPGD2 0.1-1000 nM, FIG. 16
Protocol: Eosinophils were separated from human peripheral blood in the same manner as in Example 11. The isolated human eosinophils were suspended with Dulbecco's phosphate buffered saline (hereinafter, referred to as D-PBS (−)) (NACALAI TESQUE, Inc.) and performed a reaction in a 5% CO2 incubator at 37° C. for 1 hour and 30 minutes. Thereafter, the cells were seeded in a 96-well plate at 2×10^5 cells/well using 10% FBS-containing RPMI1640. Next, an isotype control antibody [CELL LAB Rat IgG2b Isotype Control (Beckman Coulter Inc.)] at a final concentration of 10 μg/mL or Lym2 antibody; or small molecular CRTH2 antagonist 00000459 (Cayman Chemical) at a final concentration of 10 μM as a positive control, was added thereto to cause a reaction in a 5% CO2 incubator at 37° C. for 30 minutes.
Next, DKPGD2 (Cayman Chemical) at each of final concentrations of 0.1, 1, 10, 100, and 1000 nM was added thereto to cause a reaction in a 5% CO2 incubator at 37° C. for 60 minutes. After the reaction, the cells were washed twice with ice-cold PBS, Fixation Buffer (BD Biosciences) was added at 200 μL/well, and the resultant was suspended well and allowed to stand at 4° C. for 30 minutes. After that, the cells were washed twice with SM, and shape change of eosinophils was analyzed by flow cytometry (BD Biosciences, FACS CantoII).
The shape change of eosinophils was analyzed based on an increase in Forward Scatter Light (FSC) plot which is an index of the cell size, the cell surface area, or the cell diameter in the analysis using flow cytometry and the percentage (%) of eosinophils detected in the gate of high FSC was calculated based on the FSC of DKPGD2-untreated eosinophils.

human basophils = assay: Basophil depletion (cytotoxic) activity in human peripheral blood cells, flow cytometry; conditions: Example 8; 0.01-1000 ng/mL, 37° C., 20 hours; FIG. 3
Protocol: (§1) Human peripheral blood collected by adding a heparin sodium injection liquid was centrifuged at 4° C. and 1500 rpm for 30 minutes, and the plasma was recovered.
(§2) After the plasma was recovered, PBS (NACALAI TESQUE, Inc.) was added to the pellet containing the red blood up to the original volume of blood and the pellet was suspended. Next, to 1 mL of the suspension, 10 mL of hemolyzing solution [solution obtained by diluting 10×RBC Lysis buffer (eBioscience) 10 times with sterile water] was added to be mixed by inversion. The resultant was allowed to stand at room temperature for 10 minutes and centrifuged at room temperature and 1500 rpm for 5 minutes and washed twice with PBS after the supernatant was removed therefrom.
(§3) Thereafter, the cell pellet was suspended with the recovered plasma and the cells were seeded in a 48-well plate at 300 μL/well, each of chLym2, humanized Lym2 antibodies LV0HV0, LV0HV1, and LV0HV2a, or an isotype control antibody [IgG1 antibody prepared according to the method described in Example 5 using a vector encoding an anti-2,4-dinitrophenol (DNP) IgG1 antibody described in Clin Cancer Res 2005, 11(8), 3126 to 3135 (hereinafter, referred to as anti-DNP IgG1 antibody)] were added at each final concentrations of 1000, 100, 33, 11, 3.7, 1.2, 0.4, and 0.01 ng/mL to cause a reaction in a 5% CO2 incubator at 37° C. for 20 hours.
(§4) After the reaction, the cell fluid in each well was recovered, 10 mL of SM was added thereto, 200 μL per sample of CountBright Absolute Counting Beads, for flow cytometry (Molecular Probes) was added as control beads, and the fluid was centrifuged at 4° C. and 2000 rpm for 10 minutes, and then the supernatant was removed. The resultant was washed twice with SM, 10000 μg/mL of IgG from human serum (Sigma-Aldrich Co. LLC) diluted with SM was added at 300 μL/sample and suspended to cause a reaction at 4° C. for 30 minutes. […]
(§5) The cells were washed twice with SM, suspended by SM containing 1% of 7-AAD Staining Solution (BD Biosciences), allowed to stand at 4° C. for 10 minutes, and the fluorescent intensity was analyzed by flow cytometry (BD Biosciences, FACS CantoII).
(§6) Human eosinophils were detected as 7-AAD negative siglec8-PE positive fractions in granulocyte fractions of FSC-SSC deployment. Human basophils were detected as 7-AAD negative fractions, CD123-PC-Cy7 positive fractions, FcεRI-APC positive fractions in lymphocyte fractions of FSC-SSC deployment. The cell depletion activity was evaluated by analyzing the count number of each cell per a certain number of CountBright. […]

human eosinophils [2] = assay: Eosinophil depletion (cytotoxic) activity in human peripheral blood cells, flow cytometry; conditions: Example 8; 0.01-1000 ng/mL, 37° C., 20 hours; FIG. 3
Protocol: as §1, §2, §3, §4, §5, §6

| Molecule | inhibition of DKPGD2-dependent shape change of eosinophils (antagonist activity) (human eosinophils [1]; antibody 10 μg/mL or small molecule 10 μM) | shape change of eosinophils induced by ligand (human eosinophils [1]; 37° C., 60 minutes) | cytotoxic activity against basophils (human basophils) | cytotoxic activity against eosinophils (human eosinophils [2]) |
| --- | --- | --- | --- | --- |
| Cc1c(Cc2ccc3ccccc3n2)c2cc(F)ccc2n1CC(=O)O [OC000459] | inhibited |  |  |  |
| CCCCCC(=O)CC[C@H]1C(=O)C[C@H](O)[C@@H]1C/C=C\CCCC(=O)O [DKPGD2, 13, 14-dihydro-15-keto prostaglandin D2] |  | induced shape change of eosinophils in a concentration-dependent manner |  |  |
| LV0HV0: humanized Lym2 antibody, VL LV0 (SEQ ID NO: 33), VH HV0 (SEQ ID NO: 49) (antibody, V domains shown) VH: EVQLVESGGGVVQPGRSLRLSCAASGFTFSNYYMAWVRQAPGKGLEWVATISYDGSSTYYRDSVKGRFTISRDNAKNSLYLQMNSLRAEDTAVYYCARHRGYYYSGAGYFDYWGQGTMVTVSS VL: DIVMTQTPLSLPVTPGESASISCRSSQSLEYSDGYTYLEWYLQKPGQSPQVLIYGVSNRFSGVPDRFSGSGSGTDFTLKISRVEAEDVGVYYCFQATHDPLTFGQGTKLEIK |  |  | comparable to the chimeric Lym2 antibody chLym2 | comparable to the chimeric Lym2 antibody chLym2 |
| LV0HV2a: humanized Lym2 antibody, VL LV0 (SEQ ID NO: 33), VH HV2a (SEQ ID NO: 53) (antibody, V domains shown) VH: EVQLVESGGGVVQPGRSLRLSCAASGFTFSNYYMAWVRQAPGKGLEWVATISYDGSSTYYRDSVKGRFTISRDNAKNSLYLQMNSLRAEDTATYYCARHRGYYYSGAGYFDYWGQGVMVTVSS VL: DIVMTQTPLSLPVTPGESASISCRSSQSLEYSDGYTYLEWYLQKPGQSPQVLIYGVSNRFSGVPDRFSGSGSGTDFTLKISRVEAEDVGVYYCFQATHDPLTFGQGTKLEIK |  |  | comparable to the chimeric Lym2 antibody chLym2 | comparable to the chimeric Lym2 antibody chLym2 |
